This note sets out measurements from the Immune Epitope Database (IEDB).

The target of one experiment is HLA-B*07:02. Put plainly: IEDB peptide-MHC binding, purified MHC/competitive/radioactivity; filed as Kd, often an IC50 or EC50 that approximates it; ≥ and ≤ were set here for values at or beyond the usual limits of such assays. To be noted: source organism: Vaccinia virus WR.
The target of a further experiment is HLA-A*11:01. The description is as above. The note with it: source organism: Vaccinia virus WR.

What is called Kd is the concentration at which binding is half-saturated.

With RPSTRNFFEL, the Kd with HLA-B*07:02 stood at 11 nM. Take AFEFINSLLK: in the experiment with HLA-A*11:01, the Kd was found to be 470 nM.

For the sequence LPRPDTRHL, the Kd in the experiment with HLA-B*07:02 worked out at 14 nM.
